According to IntAct's records for PubMed 16438971:

B1: Protein …ON-INDUCED 19 (Arabidopsis thaliana (Mouse-ear cress)), Q39083 (parent)
chain: MDADSKRFLATLRSRSEMLMGFEEIDGDDDFQEEFACPFCAESYDIIGLCCHIDDEHTLESKNAVCPVCSLKVGVDIVAHITLHHGSLFKLQRKRKSRKSGTNSTLSLLRKELREGDLQRLLGFTSRNGSVASSVTPDPLLSSFISPTRSQSSPAPRQTKNVSEDKQIERKRQVFISPVSLKDREERRHKSEFVQRLLSSAIFDEV
partner: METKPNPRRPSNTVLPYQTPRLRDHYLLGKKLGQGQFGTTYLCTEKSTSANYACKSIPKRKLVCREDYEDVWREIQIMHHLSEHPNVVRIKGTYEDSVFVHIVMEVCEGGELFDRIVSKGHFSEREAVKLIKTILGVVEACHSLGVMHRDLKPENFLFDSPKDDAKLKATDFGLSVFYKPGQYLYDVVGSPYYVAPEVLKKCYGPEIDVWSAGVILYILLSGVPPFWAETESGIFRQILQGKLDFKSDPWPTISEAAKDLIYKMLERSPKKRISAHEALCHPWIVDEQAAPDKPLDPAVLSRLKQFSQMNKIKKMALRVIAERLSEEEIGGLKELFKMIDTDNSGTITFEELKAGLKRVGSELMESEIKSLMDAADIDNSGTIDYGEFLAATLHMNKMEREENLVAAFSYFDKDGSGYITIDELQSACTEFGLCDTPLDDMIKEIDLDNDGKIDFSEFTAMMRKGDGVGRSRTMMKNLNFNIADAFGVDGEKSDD
B2: Calcium-dependent protein kinase 11 (Arabidopsis thaliana (Mouse-ear cress)), Q39016 (parent)
chain: B1 partner
partner: B1 chain

Variants of: B1
Details: with cdpkb_arath CPK11, Q39016

| effect of a mutation on the interaction | Variant |
| --- | --- |
| decreasing interaction | MDADSKRFLATLRSRSEMLMGFEEIDGDDDFQEEFACPFCAESYDIIGLCCHIDDEHTLESKNAVCPVCSLKVGVDIVAHITLHHGSLFKLQRKRKSRKSGTNSALSLLRKELREGDLQRLLGFTSRNGSVASSVTPDPLLSSFISPTRSQSSPAPRQTKNVSEDKQIERKRQVFISPVSLKDREERRHKSEFVQRLLSSAIFDEV [T105A] |
| decreasing interaction | MDADSKRFLATLRSRSEMLMGFEEIDGDDDFQEEFACPFCAESYDIIGLCCHIDDEHTLESKNAVCPVCSLKVGVDIVAHITLHHGSLFKLQRKRKSRKSGTNSTLALLRKELREGDLQRLLGFTSRNGSVASSVTPDPLLSSFISPTRSQSSPAPRQTKNVSEDKQIERKRQVFISPVSLKDREERRHKSEFVQRLLSSAIFDEV [S107A] |

Variants of: B2
Details: with di191_arath DI19-1, Q39083

| effect of a mutation on the interaction | Variant |
| --- | --- |
| increasing interaction | METKPNPRRPSNTVLPYQTPRLRDHYLLGKKLGQGQFGTTYLCTEKSTSANYACKSIPKRKLVCREDYEDVWREIQIMHHLSEHPNVVRIKGTYEDSVFVHIVMEVCEGGELFDRIVSKGHFSEREAVKLIKTILGVVEACHSLGVMHRALKPENFLFDSPKDDAKLKATDFGLSVFYKPGQYLYDVVGSPYYVAPEVLKKCYGPEIDVWSAGVILYILLSGVPPFWAETESGIFRQILQGKLDFKSDPWPTISEAAKDLIYKMLERSPKKRISAHEALCHPWIVDEQAAPDKPLDPAVLSRLKQASQMNKIKKMALRVIAERLSEEEIGGLKELFKMIDTDNSGTITFEELKAGLKRVGSELMESEIKSLMDAADIDNSGTIDYGEFLAATLHMNKMEREENLVAAFSYFDKDGSGYITIDELQSACTEFGLCDTPLDDMIKEIDLDNDGKIDFSEFTAMMRKGDGVGRSRTMMKNLNFNIADAFGVDGEKSDD [D150A;F306A] |
| increasing interaction | METKPNPRRPSNTVLPYQTPRLRDHYLLGKKLGQGQFGTTYLCTEKSTSANYACKSIPKRKLVCREDYEDVWREIQIMHHLSEHPNVVRIKGTYEDSVFVHIVMEVCEGGELFDRIVSKGHFSEREAVKLIKTILGVVEACHSLGVMHRDLKPENFLFDSPKDDAKLKATAFGLSVFYKPGQYLYDVVGSPYYVAPEVLKKCYGPEIDVWSAGVILYILLSGVPPFWAETESGIFRQILQGKLDFKSDPWPTISEAAKDLIYKMLERSPKKRISAHEALCHPWIVDEQAAPDKPLDPAVLSRLKQASQMNKIKKMALRVIAERLSEEEIGGLKELFKMIDTDNSGTITFEELKAGLKRVGSELMESEIKSLMDAADIDNSGTIDYGEFLAATLHMNKMEREENLVAAFSYFDKDGSGYITIDELQSACTEFGLCDTPLDDMIKEIDLDNDGKIDFSEFTAMMRKGDGVGRSRTMMKNLNFNIADAFGVDGEKSDD [D171A;F306A] |

Variants of: B2
Details: with di191_arath DI19-1, Q39083
Remark: another data set of the same source

| effect of a mutation on the interaction | Variant |
| --- | --- |
| increasing interaction | METKPNPRRPSNTVLPYQTPRLRDHYLLGKKLGQGQFGTTYLCTEKSTSANYACKSIPKRKLVCREDYEDVWREIQIMHHLSEHPNVVRIKGTYEDSVFVHIVMEVCEGGELFDRIVSKGHFSEREAVKLIKTILGVVEACHSLGVMHRALKPENFLFDSPKDDAKLKATDFGLSVFYKPGQYLYDVVGSPYYVAPEVLKKCYGPEIDVWSAGVILYILLSGVPPFWAETESGIFRQILQGKLDFKSDPWPTISEAAKDLIYKMLERSPKKRISAHEALCHPWIVDEQAAPDKPLDPAVLSRLKQFSQMNKIKKMALRVIAERLSEEEIGGLKELFKMIDTDNSGTITFEELKAGLKRVGSELMESEIKSLMDAADIDNSGTIDYGEFLAATLHMNKMEREENLVAAFSYFDKDGSGYITIDELQSACTEFGLCDTPLDDMIKEIDLDNDGKIDFSEFTAMMRKGDGVGRSRTMMKNLNFNIADAFGVDGEKSDD [D150A] |

Variants of: B2
Details: with di191_arath DI19-1, Q39083
Remark: another data set of the same source

| effect of a mutation on the interaction | Variant |
| --- | --- |
| disrupting interaction | METKPNPRRPSNTVLPYQTPRLRDHYLLGKKLGQGQFGTTYLCTEKSTSANYACKSIPKRKLVCREDYEDVWREIQIMHHLSEHPNVVRIKGTYEDSVFVHIVMEVCEGGELFDRIVSKGHFSEREAVKLIKTILGVVEACHSLGVMHRALKPENFLFDSPKDDAKLKATDFGLSVFYKPGQYLYDVVGSPYYVAPEVLKKCYGPEIDVWSAGVILYILLSGVPPFWAETESGIFRQILQGKLDFKSDPWPTISEAAKDLIYKMLERSPKKRISAHEALCHPWIVDEQAAPDKPLDPAVLSRLKQFSQMNKIKKMALRVIAERLSEEEIGGLKELFKMIDTDNSGTITFEELKAGLKRVGSELMESEIKSLMDAADIDNSGTIDYGEFLAATLHMNKMEREENLVAAFSYFDKDGSGYITIDELQSACTEFGLCDTPLDDMIKEIDLDNDGKIDFSEFTAMMRKGDGVGRSRTMMKNLNFNIADAFGVDGEKSDD [D150A] |

Variants of: B2
Details: with di191_arath DI19-1, Q39083
Remark: another data set of the same source

| effect of a mutation on the interaction | Variant |
| --- | --- |
| increasing interaction | METKPNPRRPSNTVLPYQTPRLRDHYLLGKKLGQGQFGTTYLCTEKSTSANYACKSIPKRKLVCREDYEDVWREIQIMHHLSEHPNVVRIKGTYEDSVFVHIVMEVCEGGELFDRIVSKGHFSEREAVKLIKTILGVVEACHSLGVMHRDLKPENFLFDSPKDDAKLKATDFGLSVFYKPGQYLYDVVGSPYYVAPEVLKKCYGPEIDVWSAGVILYILLSGVPPFWAETESGIFRQILQGKLDFKSDPWPTISEAAKDLIYKMLERSPKKRISAHEALCHPWIVDEQAAPDKPLDPAVLSRLKQASQMNKIKKMALRVIAERLSEEEIGGLKELFKMIDTDNSGTITFEELKAGLKRVGSELMESEIKSLMDAADIDNSGTIDYGEFLAATLHMNKMEREENLVAAFSYFDKDGSGYITIDELQSACTEFGLCDTPLDDMIKEIDLDNDGKIDFSEFTAMMRKGDGVGRSRTMMKNLNFNIADAFGVDGEKSDD [F306A] |
